Bridge positions count the residues as written; N and C are the ends. Ends that are not written are not given here. COCH2 = acetyl group that carries the bridge
molecular target: T1, Recombinant Human FGFR2 alpha (IIIc) Fc Chimera Protein (Homo sapiens, UniProt P21802); assay: ELISA binding affinity of enzymatically synthesized peptide to FGFR; conditions: ELISA luminescence signal at 10 nmol/L peptide, SEQ ID NO: 47 at 10 nmol/L standardized to 1; enzyme synthesis product
T1 construct: Fc (chimera); purchased R&D systems 712-FR-050
T1 sequence (P21802 with tags, fused parts or gaps limits assumed): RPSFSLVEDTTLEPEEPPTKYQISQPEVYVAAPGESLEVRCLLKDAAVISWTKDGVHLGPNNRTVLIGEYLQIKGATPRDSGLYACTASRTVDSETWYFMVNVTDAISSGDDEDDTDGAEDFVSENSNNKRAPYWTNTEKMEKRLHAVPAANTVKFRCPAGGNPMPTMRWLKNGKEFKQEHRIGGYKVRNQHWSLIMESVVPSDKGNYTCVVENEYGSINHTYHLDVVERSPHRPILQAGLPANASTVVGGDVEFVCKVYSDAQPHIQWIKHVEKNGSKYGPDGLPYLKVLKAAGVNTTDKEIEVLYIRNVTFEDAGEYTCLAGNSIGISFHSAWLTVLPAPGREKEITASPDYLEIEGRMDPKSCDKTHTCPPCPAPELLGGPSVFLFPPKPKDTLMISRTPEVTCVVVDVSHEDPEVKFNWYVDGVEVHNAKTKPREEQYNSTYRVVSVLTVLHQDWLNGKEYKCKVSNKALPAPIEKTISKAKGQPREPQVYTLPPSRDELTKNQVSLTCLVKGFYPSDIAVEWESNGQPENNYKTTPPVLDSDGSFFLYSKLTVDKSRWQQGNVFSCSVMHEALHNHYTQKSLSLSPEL
Experimental: The binding affinity of the peptide to FGFR was evaluated using an ELISA method.
The binding affinity of the enzymatically synthesized peptide to FGFR was measured by evaluating the amount of the peptide bound to FGFR by ELISA.
First, 5 ng of Recombinant Human FGFR2 alpha (IIIc) Fc Chimera Protein (R&D systems, 712-FR-050) was immobilized in each well of a 96-well plate, and blocked with Pierce Protein-Free (PBS) Blocking Buffer (Thermo, 37572), and a peptide diluted with Can Get Signal Immunoreaction Enhancer Solution I (TOYOBO, NKB-101) was then added and reacted at room temperature for 3 hours. After washing with 0.05% Tween 20-containing phosphate buffered saline (PBS), an anti-Myc antibody (Cell Signaling, 14038S) diluted with Can Get Signal Immunoreaction Enhancer Solution II (TOYOBO, NKB-101) was added and reacted at room temperature for 2 hours. After washing with 0.05% Tween 20-containing PBS, SuperSignal ELISA Femto Substrate (Thermo, 37075) was added, and the luminescence amount was measured. The dose-response relationship was calculated from using the difference between the luminescence amount in the well in which FGFR was immobilized and the luminescence amount in the well in which FGFR was not immobilized, and the concentration of the peptide at the time of reaction, and the binding affinity to FGFR was evaluated according to the following evaluation criteria. The evaluation result preferably satisfies the evaluation criteria A, B, or C.
In a case where a value of a luminescence signal emitted by the cyclic peptide set forth in SEQ ID NO: 47 at a reaction concentration of 10 nmol/L is standardized to 1, evaluation criteria of the luminescence signal value emitted by the cyclic peptide at a reaction concentration of 10 nmol/L is as follows. • A: 0.7 or more • B: 0.5 or more and less than 0.7 • C: 0.1 or more and less than 0.5 • D: less than 0.1.

| Evaluation result of binding affinity to FGFR | Substance |
| --- | --- |
| B (0.5 or more and less than 0.7) | 58 (KCPQNFANPVQWRYFQHYK(COCH2)N; thioether 2-19 (inferred)) [compound 58] |
| B (0.5 or more and less than 0.7) | 59 (KCPQNFIAPVQWRYFQHYK(COCH2)N; thioether 2-19 (inferred)) [compound 59] |
| A (0.7 or more) | 60 (KCPQNFINAVQWRYFQHYK(COCH2)N; thioether 2-19 (inferred)) [compound 60] |
| A (0.7 or more) | 61 (KCPQNFINPAQWRYFQHYK(COCH2)N; thioether 2-19 (inferred)) [compound 61] |
| C (0.1 or more and less than 0.5) | 62 (KCPQNFINPVQARYFQHYK(COCH2)N; thioether 2-19 (inferred)) [compound 62] |
| A (0.7 or more) | 63 (KCPQNFINPVQWAYFQHYK(COCH2)N; thioether 2-19 (inferred)) [compound 63] |
| B (0.5 or more and less than 0.7) | 64 (KCPQNFINPVQWRAFQHYK(COCH2)N; thioether 2-19 (inferred)) [compound 64] |
| A (0.7 or more) | 65 (KCPQNFINPVQWRYFAHYK(COCH2)N; thioether 2-19 (inferred)) [compound 65] |
| A (0.7 or more) | 66 (KCPQNFINPVQWRYFQAYK(COCH2)N; thioether 2-19 (inferred)) [compound 66] |
| A (0.7 or more) | 67 (KCPQNFINPVQWRYFQHYKA; not fully specified; also: cyclic peptide, ring places not shown) [compound 67] |
| A (0.7 or more) | 68 (KCQNFINPVQWRYFQHYK(COCH2)N; thioether 2-18 (inferred)) [compound 68] |
| C (0.1 or more and less than 0.5) | 69 (KCPQNFINPVQWRYFQHYAKN; not fully specified; also: cyclic peptide, ring places not shown) [compound 69] |
| B (0.5 or more and less than 0.7) | 70 (KCAPQNFINPVQWRYFQHYK(COCH2)N; thioether 2-20 (inferred)) [compound 70] |
| A (0.7 or more) | 71 (GCPQNFINPVQWRYFQHYK(COCH2)N; thioether 2-19 (inferred)) [compound 71] |
| A (0.7 or more) | 72 (PCPQNFINPVQWRYFQHYK(COCH2)N; thioether 2-19 (inferred)) [compound 72] |
| A (0.7 or more) | 73 (LCPQNFINPVQWRYFQHYK(COCH2)N; thioether 2-19 (inferred)) [compound 73] |
| A (0.7 or more) | 74 (ICPQNFINPVQWRYFQHYK(COCH2)N; thioether 2-19 (inferred)) [compound 74] |
| A (0.7 or more) | 75 (VCPQNFINPVQWRYFQHYK(COCH2)N; thioether 2-19 (inferred)) [compound 75] |
| A (0.7 or more) | 76 (FCPQNFINPVQWRYFQHYK(COCH2)N; thioether 2-19 (inferred)) [compound 76] |
| A (0.7 or more) | 77 (YCPQNFINPVQWRYFQHYK(COCH2)N; thioether 2-19 (inferred)) [compound 77] |
| A (0.7 or more) | 78 (WCPQNFINPVQWRYFQHYK(COCH2)N; thioether 2-19 (inferred)) [compound 78] |
| A (0.7 or more) | 79 (NCPQNFINPVQWRYFQHYK(COCH2)N; thioether 2-19 (inferred)) [compound 79] |
| A (0.7 or more) | 80 (QCPQNFINPVQWRYFQHYK(COCH2)N; thioether 2-19 (inferred)) [compound 80] |
| A (0.7 or more) | 81 (SCPQNFINPVQWRYFQHYK(COCH2)N; thioether 2-19 (inferred)) [compound 81] |
| A (0.7 or more) | 82 (TCPQNFINPVQWRYFQHYK(COCH2)N; thioether 2-19 (inferred)) [compound 82] |
| A (0.7 or more) | 83 (DCPQNFINPVQWRYFQHYK(COCH2)N; thioether 2-19 (inferred)) [compound 83] |

| Evaluation result of binding affinity to FGFR | Substance |
| --- | --- |
| A (0.7 or more) | 84 (ECPQNFINPVQWRYFQHYK(COCH2)N; thioether 2-19 (inferred)) [compound 84] |
| A (0.7 or more) | 85 (RCPQNFINPVQWRYFQHYK(COCH2)N; thioether 2-19 (inferred)) [compound 85] |
| A (0.7 or more) | 86 (HCPQNFINPVQWRYFQHYK(COCH2)N; thioether 2-19 (inferred)) [compound 86] |
| A (0.7 or more) | 87 (QCPQNFINPVHWRYFQHYK(COCH2)N; thioether 2-19 (inferred)) [compound 87] |
| A (0.7 or more) | 88 (QCPQNFINPVQWRYLQHYK(COCH2)N; thioether 2-19 (inferred)) [compound 88] |
| B (0.5 or more and less than 0.7) | 89 (QCPQNFINPVQWRYYQHYK(COCH2)N; thioether 2-19 (inferred)) [compound 89] |
| C (0.1 or more and less than 0.5) | 90 (QCPQNFINPVQWRYRQHYK(COCH2)N; thioether 2-19 (inferred)) [compound 90] |
| C (0.1 or more and less than 0.5) | 91 (QCPQNFINPVQWRYFQHVK(COCH2)N; thioether 2-19 (inferred)) [compound 91] |
| A (0.7 or more) | 92 (QCPQNFINPVQWRYFQHFK(COCH2)N; thioether 2-19 (inferred)) [compound 92] |
| A (0.7 or more) | 93 (QCPQNFINPVQWRYFQHWK(COCH2)N; thioether 2-19 (inferred)) [compound 93] |
| C (0.1 or more and less than 0.5) | 94 (QCPQNFINPVQWRYFQHSK(COCH2)N; thioether 2-19 (inferred)) [compound 94] |
| C (0.1 or more and less than 0.5) | 95 (QCPQGFINPVQWRYFQHYK(COCH2)N; thioether 2-19) [compound 95] |
| C (0.1 or more and less than 0.5) | 96 (QCPQYFINPVQWRYFQHYK(COCH2)N; thioether 2-19) [compound 96] |
| C (0.1 or more and less than 0.5) | 97 (QCPQSFINPVQWRYFQHYK(COCH2)N; thioether 2-19) [compound 97] |
| C (0.1 or more and less than 0.5) | 98 (QCPQTFINPVQWRYFQHYK(COCH2)N; thioether 2-19) [compound 98] |
| C (0.1 or more and less than 0.5) | 99 (QCPQEFINPVQWRYFQHYK(COCH2)N; thioether 2-19) [compound 99] |
| C (0.1 or more and less than 0.5) | 100 (QCPQHFINPVQWRYFQHYK(COCH2)N; thioether 2-19 (inferred)) [compound 100] |
| C (0.1 or more and less than 0.5) | 101 (QCPQNFINPVQIRYFQHYK(COCH2)N; thioether 2-19 (inferred)) [compound 101] |
| C (0.1 or more and less than 0.5) | 102 (QCPQNFINPVQVRYFQHYK(COCH2)N; thioether 2-19 (inferred)) [compound 102] |
| B (0.5 or more and less than 0.7) | 103 (QCPQNFINPVQFRYFQHYK(COCH2)N; thioether 2-19 (inferred)) [compound 103] |
| B (0.5 or more and less than 0.7) | 104 (QCPQNFINPVQYRYFQHYK(COCH2)N; thioether 2-19 (inferred)) [compound 104] |
| C (0.1 or more and less than 0.5) | 105 (QCPQNFINPVQSRYFQHYK(COCH2)N; thioether 2-19 (inferred)) [compound 105] |
| A (0.7 or more) | 106 (QCPQNFINPVQHRYFQHYK(COCH2)N; thioether 2-19 (inferred)) [compound 106] |
| B (0.5 or more and less than 0.7) | 107 (YCTDNYIDDIQFWYLFLYK(COCH2)Q; thioether 2-19 (inferred)) [compound 107] |
| A (0.7 or more) | 108 (LCRNYINPQQWRYFALYK(COCH2)Y; thioether 2-18 (inferred)) [compound 108] |
